This is an account of results in patent publication US20230140384A1 (Bristol-Myers Squibb, published 2023).

Assay [1] concerns the target T1, hCD64 (human, UniProt P12314 16-288).
T1 construct: also called FcγRI
Briefly: SPR % Rmax, compared with 12D6-IgG1f-P238K. Here is the method:
(§1) The binding of human FcγRs to antibodies was studied by surface plasmon resonance using a Biacore 8K system (GE Healthcare, USA). For these studies, protein A was immobilized on flow cells 1-4 of the CM5 sensor chip using standard ethyl (dimethylaminopropyl) carbodiimide (EDC)/N-hydroxysuccinimide […] chemistry, with ethanolamine blocking, in a running buffer of 10 mM HEPES pH 7.4, 150 mM NaCl, 3 mM EDTA, 0.05% surfactant p20, to a density of ˜3000 RU. Purified 12D6-24-IgG1f antibody (10 μg/mL) or expression supernatants of all other antibodies (diluted to ˜10 μg/ml) were captured on the protein A surface to a density of ˜1000-1200 RU, and the binding of FcγR analytes was tested in running buffer consisting of 10 mM NaPO₄, 130 mM NaCl, 0.05% p20, buffer (PBS-T) pH 7.1 at 25° C., using 120 s association time and 120 s dissociation time at a flow rate of 20 μL/min. The data were analyzed using Biacore 8K evaluation software by determining the measured binding response as a percentage of theoretical maximum binding response for each antibody (% Rmax), based on the level of captured antibody, assuming 100% fractional activity and only taking into account protein mass without glycosylation.

Assay [2] addresses T1, hCD64. Briefly: SPR, antibody captured on protein A, FcγR as analyte. As to the method:
as §1
On the technique in general: SPR reads the build-up and loss of mass on a sensor chip optically.

T1 sequence (P12314 16-288 limits assumed): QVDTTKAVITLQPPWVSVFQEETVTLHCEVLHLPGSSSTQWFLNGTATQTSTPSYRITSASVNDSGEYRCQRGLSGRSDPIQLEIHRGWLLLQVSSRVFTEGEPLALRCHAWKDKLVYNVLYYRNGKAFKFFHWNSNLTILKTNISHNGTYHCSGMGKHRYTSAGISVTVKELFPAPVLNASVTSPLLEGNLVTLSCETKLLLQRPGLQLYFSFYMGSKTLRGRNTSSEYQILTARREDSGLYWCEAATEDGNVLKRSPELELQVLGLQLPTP

B1: 12D6-IgG1f-L235E-P238K (antibody)
heavy: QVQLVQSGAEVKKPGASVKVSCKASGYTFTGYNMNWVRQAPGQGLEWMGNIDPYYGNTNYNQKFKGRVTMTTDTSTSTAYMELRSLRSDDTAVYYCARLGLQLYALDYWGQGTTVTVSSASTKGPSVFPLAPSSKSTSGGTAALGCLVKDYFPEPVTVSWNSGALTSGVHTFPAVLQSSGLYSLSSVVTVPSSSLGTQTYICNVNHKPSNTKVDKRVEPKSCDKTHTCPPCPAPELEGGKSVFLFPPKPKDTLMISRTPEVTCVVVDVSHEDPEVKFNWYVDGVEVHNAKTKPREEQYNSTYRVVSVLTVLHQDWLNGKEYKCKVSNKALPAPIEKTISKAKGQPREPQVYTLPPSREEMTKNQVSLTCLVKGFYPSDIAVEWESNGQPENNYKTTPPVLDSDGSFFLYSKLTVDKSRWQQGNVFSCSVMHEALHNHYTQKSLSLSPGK
light: DIVMTQTPLSLPVTPGEPASISCRSSQSLVHSNANTYLHWYLQKPGQSPQLLIYKLTNRFFGVPDRFSGSGSGTDFTLKISRVEAEDVGVYYCSQSIHVPWTFGGGTKVEIKRTVAAPSVFIFPPSDEQLKSGTASVVCLLNNFYPREAKVQWKVDNALQSGNSQESVTEQDSKDSTYSLSSTLTLSKADYEKHKVYACEVTHQGLSSPVTKSFNRGEC
notes: Tested as expression supernatant; copies: 2 + 2
On to B1, for which the “fold reduction of binding against P238K alone” value with hCD64 [1] is around 10 fold.

B2: 12D6-IgG1.3f-P238K (antibody)
heavy: QVQLVQSGAEVKKPGASVKVSCKASGYTFTGYNMNWVRQAPGQGLEWMGNIDPYYGNTNYNQKFKGRVTMTTDTSTSTAYMELRSLRSDDTAVYYCARLGLQLYALDYWGQGTTVTVSSASTKGPSVFPLAPSSKSTSGGTAALGCLVKDYFPEPVTVSWNSGALTSGVHTFPAVLQSSGLYSLSSVVTVPSSSLGTQTYICNVNHKPSNTKVDKRVEPKSCDKTHTCPPCPAPEAEGAKSVFLFPPKPKDTLMISRTPEVTCVVVDVSHEDPEVKFNWYVDGVEVHNAKTKPREEQYNSTYRVVSVLTVLHQDWLNGKEYKCKVSNKALPAPIEKTISKAKGQPREPQVYTLPPSREEMTKNQVSLTCLVKGFYPSDIAVEWESNGQPENNYKTTPPVLDSDGSFFLYSKLTVDKSRWQQGNVFSCSVMHEALHNHYTQKSLSLSPGK
light: DIVMTQTPLSLPVTPGEPASISCRSSQSLVHSNANTYLHWYLQKPGQSPQLLIYKLTNRFFGVPDRFSGSGSGTDFTLKISRVEAEDVGVYYCSQSIHVPWTFGGGTKVEIKRTVAAPSVFIFPPSDEQLKSGTASVVCLLNNFYPREAKVQWKVDNALQSGNSQESVTEQDSKDSTYSLSSTLTLSKADYEKHKVYACEVTHQGLSSPVTKSFNRGEC
notes: Tested as expression supernatant; IgG1.3f carries L234A, L235E and G237A; copies: 2 + 2
Consider B2, for which the binding result with hCD64 [2] is on record as “no binding (tested: 1 µM)”.

B3: 12D6-IgG2.3G1.3f-P238K (antibody)
heavy: QVQLVQSGAEVKKPGASVKVSCKASGYTFTGYNMNWVRQAPGQGLEWMGNIDPYYGNTNYNQKFKGRVTMTTDTSTSTAYMELRSLRSDDTAVYYCARLGLQLYALDYWGQGTTVTVSSASTKGPSVFPLAPCSRSTSESTAALGCLVKDYFPEPVTVSWNSGALTSGVHTFPAVLQSSGLYSLSSVVTVPSSNFGTQTYTCNVDHKPSNTKVDKTVERKSCVECPPCPAPEAEGAKSVFLFPPKPKDTLMISRTPEVTCVVVDVSHEDPEVKFNWYVDGVEVHNAKTKPREEQYNSTYRVVSVLTVLHQDWLNGKEYKCKVSNKALPAPIEKTISKAKGQPREPQVYTLPPSREEMTKNQVSLTCLVKGFYPSDIAVEWESNGQPENNYKTTPPVLDSDGSFFLYSKLTVDKSRWQQGNVFSCSVMHEALHNHYTQKSLSLSPGK
light: DIVMTQTPLSLPVTPGEPASISCRSSQSLVHSNANTYLHWYLQKPGQSPQLLIYKLTNRFFGVPDRFSGSGSGTDFTLKISRVEAEDVGVYYCSQSIHVPWTFGGGTKVEIKRTVAAPSVFIFPPSDEQLKSGTASVVCLLNNFYPREAKVQWKVDNALQSGNSQESVTEQDSKDSTYSLSSTLTLSKADYEKHKVYACEVTHQGLSSPVTKSFNRGEC
notes: copies: 2 + 2
On to B3, for which the binding result in the assay with hCD64 [2] was “no binding (tested: 1 µM)”.

B4: 12D6-IgG2.5G1.3f-P238K (antibody)
heavy: QVQLVQSGAEVKKPGASVKVSCKASGYTFTGYNMNWVRQAPGQGLEWMGNIDPYYGNTNYNQKFKGRVTMTTDTSTSTAYMELRSLRSDDTAVYYCARLGLQLYALDYWGQGTTVTVSSASTKGPSVFPLAPSSRSTSESTAALGCLVKDYFPEPVTVSWNSGALTSGVHTFPAVLQSSGLYSLSSVVTVPSSNFGTQTYTCNVDHKPSNTKVDKTVERKCCVECPPCPAPEAEGAKSVFLFPPKPKDTLMISRTPEVTCVVVDVSHEDPEVKFNWYVDGVEVHNAKTKPREEQYNSTYRVVSVLTVLHQDWLNGKEYKCKVSNKALPAPIEKTISKAKGQPREPQVYTLPPSREEMTKNQVSLTCLVKGFYPSDIAVEWESNGQPENNYKTTPPVLDSDGSFFLYSKLTVDKSRWQQGNVFSCSVMHEALHNHYTQKSLSLSPGK
light: DIVMTQTPLSLPVTPGEPASISCRSSQSLVHSNANTYLHWYLQKPGQSPQLLIYKLTNRFFGVPDRFSGSGSGTDFTLKISRVEAEDVGVYYCSQSIHVPWTFGGGTKVEIKRTVAAPSVFIFPPSDEQLKSGTASVVCLLNNFYPREAKVQWKVDNALQSGNSQESVTEQDSKDSTYSLSSTLTLSKADYEKHKVYACEVTHQGLSSPVTKSFNRGEC
notes: copies: 2 + 2
For B4, in the assay with hCD64 [2], the binding result is “no binding (tested: 1 µM)”.
